One molecule from publication PMC4282981 (Journal of immunology (Baltimore, Md. : 1950), 2014) can be followed below.

This test concerns the target Endogenous SHP-1 (human (endogenous in YTS), UniProt P29350 1-595). The experiment in a line: co-IP.

Chain of Endogenous SHP-1 (P29350 whole entry): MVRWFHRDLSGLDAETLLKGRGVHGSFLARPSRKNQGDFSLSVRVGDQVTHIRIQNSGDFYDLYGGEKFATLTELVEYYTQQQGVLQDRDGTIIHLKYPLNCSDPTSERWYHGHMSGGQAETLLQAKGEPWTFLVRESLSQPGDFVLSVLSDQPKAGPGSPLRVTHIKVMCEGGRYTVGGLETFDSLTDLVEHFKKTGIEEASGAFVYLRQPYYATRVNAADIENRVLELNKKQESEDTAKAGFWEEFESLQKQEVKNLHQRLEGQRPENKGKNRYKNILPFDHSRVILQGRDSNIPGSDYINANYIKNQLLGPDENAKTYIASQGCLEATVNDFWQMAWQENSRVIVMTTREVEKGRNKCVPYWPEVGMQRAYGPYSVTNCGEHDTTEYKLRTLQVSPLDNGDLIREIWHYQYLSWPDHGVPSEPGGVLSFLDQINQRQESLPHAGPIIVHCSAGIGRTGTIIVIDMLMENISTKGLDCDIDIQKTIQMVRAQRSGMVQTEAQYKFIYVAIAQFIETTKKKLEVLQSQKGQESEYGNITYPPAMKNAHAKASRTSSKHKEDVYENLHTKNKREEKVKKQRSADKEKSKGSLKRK

B1: KIR2DL1 H36A mutant tagged with Venus at the C-terminus (receptor, UniProt P43626 22-348, looked up)
chain: HEGVHRKPSLLAHPGRLVKSEETVILQCWSDVMFEAFLLHREGMFNDTLRLIGEHHDGVSKANFSISRMTQDLAGTYRCYGSVTHSPYQVSAPSDPLDIVIIGLYEKPSLSAQLGPTVLAGENVTLSCSSRSSYDMYHLSREGEAHERRLPAGPKVNGTFQADFPLGPATHGGTYRCFGSFHDSPYEWSKSSDPLLVSVTGNPSNSWPSPTEPSSKTGNPRHLHILIGTSVVIILFILLFFLLHRWCSNKKNAAVMDQESAGNRTANSEDSDEQDPQEVTYTQLNHCVFTQRKITRPSQRPKTPPTDIIVYTELPNAESRSKVVSCP
Regarding B1, the “fold association against 2DL1-WT” value was around 4 fold.
